According to US20190248902A1 (published 2019):
Substitutions are numbered along the chain they refer to.

T1: human ASGR-1 mutant construct H203 (human, UniProt P07306 1-291)
T1 construct: Arg/Glu scanning: non-arginine residues were changed to arginine; Transiently expressed on CHO-S cells
T1 sequence: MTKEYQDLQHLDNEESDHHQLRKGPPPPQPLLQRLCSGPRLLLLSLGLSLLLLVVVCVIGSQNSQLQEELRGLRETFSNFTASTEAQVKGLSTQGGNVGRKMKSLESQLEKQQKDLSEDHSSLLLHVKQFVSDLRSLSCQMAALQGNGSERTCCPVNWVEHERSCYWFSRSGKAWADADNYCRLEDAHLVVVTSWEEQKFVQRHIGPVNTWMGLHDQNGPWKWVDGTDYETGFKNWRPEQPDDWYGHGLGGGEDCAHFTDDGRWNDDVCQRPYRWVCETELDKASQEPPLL

B1: 6G7 (antibody, V domains shown)
VH: QVQLVESGGGVVQPGRSLRLSCAASGFTFSSYGMHWVRQTPGKGLEWVAIISYVGKNKYYADSVKGRFTISRDNSKNTLYLQMNSLRAEDTAVYYCARRGNSYGGYGMDVWGQGTTVTVSS
VL: DIQMTQSPSSRSASVGDRVTITCQASQDISNYLNWCQQKPGKALKLLIYDASTLETGVPSRFSGSGSGTDFTFTISSVQPEDIATYYCQQYDNVPITFGQGTRLEIK
notes: mAb
B2: 48B12 (antibody, V domains shown)
VH: EVQLLESGGGLVQPGGSLRLSCAASGFTFSSYAMNWVRQAPGKGLEWVSAISGRGGNTFYADSVKGRFTISRDNSKNTLYLQMNSLRAEDTAVYYCAKRETYNWNYEGFDYWGQGTLVTVSS
VL: SYELTQPPSVSVSPGQTARITCSGDALPKKYAYWYQQKSGQAPVLVIYEDSKRPSGIPERFSGSSSGTMATLTISGAQVEDEADYYCNSTDSSGNHVVFGGGTKLTVL
notes: mAb
B3: 190F8 (antibody, V domains shown)
VH: QVQLVESGGGVVQPGRSLRLSCAASGFTFSTYGMHWVRQAPGKGLEWVAVIWYDGSNKNYADSVKGRFTISRDNSKNTLYLQMNSLRAEDTAVYYCARDQGVGYDGLDVWGQGTTVTVSS
VL: DIQMTQSPSSLSASVGDRVTITCRTSQGIGNYLAWFQQKPGKAPKSLLYKASSLQSGVPSKFSGSGSGTDFTLTISSLQPEDFATYYCQQYMTYPLTFGGGTKVEIK
notes: mAb
B4: 194C1 (antibody, V domains shown)
VH: B3 VH with T31S, K58E, N59H, D99N, Q100R, D105Y
VL: B3 VL with T25A, G30S, L48I, K50A, Q89L, Q90H, M92L
notes: mAb
B5: 198G3 (antibody, V domains shown)
VH: B3 VH with R19K, S56T, Y80C
VL: B3 VL with T5A, N31K, S56G
notes: mAb
B6: 191G1 (antibody, V domains shown)
VH: B3 VH with T31S, K58E, N59H, Q100R, D105Y
VL: B3 VL with T25A, G30S, L48I, K50A, Q90H, M92L
notes: mAb
B7: 191G10 (antibody, V domains shown)
VH: B3 VH with T31S
VL: B3 VL with N31K, A51V
notes: mAb
B8: 5E5 (antibody, V domains shown)
VH: QVQLVESGGGVVQPGRSLRLSCAASGFTFSNYVMHWVRQAPGKGLEWVAVIWYDGSNKYYADSVKGRFTISRDNSKNTLYLQMNSLRAEDTAVYYCTREVYSSGWYDYGMDVWGQGTTVTVSS
VL: DIQMTQSPSSLSASVGDRVTITCRASQGIRNDLGWYQQKPGKAPKRLIYAASSLQSGVPSRFSGSGSGTEFTLTISSLQPEDFATYYCLQHYSYPRTFGQGTKVEVK
notes: mAb
B9: 7G4 (antibody, V domains shown)
VH: B8 VH with S30N, N84T, T97A, V100K, G104N
VL: B8 VL with K39R, F83S, Q90H, H91Q, V106I
notes: mAb
B10: 56E5 (antibody, V domains shown)
VH: QVQLVQSGAEVKKPGASVKVSCQASGYTFTGYHMHWVRQAPGQGLEWMGWINPNNNATNYAQKFQGRVTMTRDTSISTAYMELRRLRSDDTAVYHCARDGTSSFDYWGQGTLVTVSS
VL: DIQMTQSPSSVSASVGDRVTITCRASQGIRKWLAWYQQKPGKAPKLLIYAASSLQSGVPSRFSGSGSGTDFTLTISSLQPEDFATYYCQQANSFPFTFGPGTKVDIK
notes: mAb
B11: 72G9 (antibody, V domains shown)
VH: EVQLVESGGGLVKPGGSLRLSCAASGFTFSSYSMNWVRQAPGKGLEWVSSISGSSSYIYYADSVKGRFTISRDNAKNSLYLQMNSLRAEDTAVYFCARGGSRGFDPWGQGTLVTVSS
VL: B10 VL with V11L, G28S, R30T, K31S, W32Y, A34N, A50T, A91S, N92H
notes: mAb
B12: 4A2 (antibody, V domains shown)
VH: QVQLVQSGTEVKKPGASVKVSCKASGYTFTNYDINWVRQATGQGLEWMGWMHPNSGNTGYAQKFQGRVTLTRNTSISTAYMELSSLRSEDTAVYYCASSSGWYYFDYWGQGTLVTVSS
VL: DIVMTQSPDSLAVSLGERATINCKSSQSILHSSNNNNYLAWFQQKPGQPPKLLLYWASTRESGVPDRFSGSGSGTDFTLTISSLQPEDVAVYYCQQYYNTPVTFGPGTKVGIK
notes: mAb
B13: 26C4 (antibody, V domains shown)
VH: B12 VH with T9A, T41S, H52N, K63R, L70M, S77N
VL: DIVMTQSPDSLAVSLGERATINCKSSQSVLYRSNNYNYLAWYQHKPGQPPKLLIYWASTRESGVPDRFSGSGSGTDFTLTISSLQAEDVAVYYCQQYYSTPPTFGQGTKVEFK
notes: mAb
B14: 25A4 (antibody, V domains shown)
VH: B12 VH with Q3L, T9A, K13R, H52Y, L70M
VL: DIVMTQFPDSLAVSLGERATIKCKSSQSVLYSSHNNNYLAWYQQKPGQPPKLLLYWASTRESGVPDRFSGSGSGTEFTLTISSLEAEDVAVYYCQQYYSTPPTFGQGTKVEIK
notes: mAb
B15: 29H8 (antibody, V domains shown)
VH: B12 VH with T9A, K12Q, H52N, K63R, L70M, T78A
VL: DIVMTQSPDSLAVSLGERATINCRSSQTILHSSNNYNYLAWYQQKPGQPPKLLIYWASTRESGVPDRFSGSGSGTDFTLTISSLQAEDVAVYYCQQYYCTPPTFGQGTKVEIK
notes: mAb
B16: 7E11 (antibody, V domains shown)
VH: QVQLVESGGGVVQPGRSLRLSCAASGFTFSSFGMHWVRQAPGKGLEWVAIIWHDGSNKYYADSVKGRFTISRDNSNNTLYLQMSSLRAEDTAVYYCARDLSMGGMDVWGQGTTVTVSS
VL: DIQMTQSPSSLSASVGDRVTIACRASQNIISYLNWYQQKPGKAPKFLIYTASSLQSGVPSRFSGSGSGTDFTLTISSLQPEDFAIYYCQQTYSTPLTFGGGTKVEIK
notes: mAb
B17: 22G5 (antibody, V domains shown)
VH: EVQLLESGGGLVQPGGSLRLSCAASGFTFSSYAMNWVRQAPGMGLEWVSVISRSGGYTYYADSVKGRFTISRDNSKNTLYLQMNSLRAEDTAVYYCASRLAVAGSEAFDIWGQGTLVTVSS
VL: DIQMTQSPSSLSASVGDRVTITCRASQNISSYLNWYQQKQGKAPKLLIYAASSLQNGVPSRFSGRGSGTDFTLTISSLQPEDFATYYCQQSYRTPLFTFGPGTKVDFK
notes: mAb
B18: 184E7 (antibody, V domains shown)
VH: QVQLVQSGAEVKTPGASVKVSCRASGYTFTSYNMHWVRQVPGQGLEWMGWINPNNGGSNYTQKFQGRVTMTRDTSISTAYMELSRLRSDDTAVYYCARKFGDWGQGTLVTVSS
VL: DIQMTQSPSSRSASIGERVTITCRASQGISNYLAWIQQKPGTAPKSLIYAASSLQSGVSSRFSGSGFGTDFTITISSVQREDFATYYCQQYNGYPFTFGHGTKVDIK
notes: mAb
B19: 194A4 (antibody, V domains shown)
VH: QVQLVQSGTEVKKPGASLKVSCKASGYTFTVYYLNWVRQAPGQGLEWMGWINPNSGGTNYAQKFQGRVTMTRDTSISTAYMELSRLRSDDTAVYYCARGYDILTGWGQGTLVTVSS
VL: EIVLTQSPGTLSLSPGERATLSCRASRGVSNIYLAWYQQKPGQAPRLLIYGASNRATGIPDRFSGSGSGTDFTLTISRLEPEDFAVYYCQHNDYSMFTFGPGTKVDIK
notes: mAb

Biological target: T1, human ASGR-1 mutant construct H203
Assay: FACS ratio: H203 normalized value / wt normalized value
Method in brief: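 Transiently transfected CHO-S cells expressing wild-type or mutant hASGR-1 incubated with antibody at 5 ug/ml, 1 h at 4 °C; bound antibody detected by Alexa Fluor 647 anti-Fc plus 7-AAD, by flow cytometry. Binding normalized to expression using an unaffected antibody (65C12), then to wild type; hits defined as >3× IQR above third quartile.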

| Binder | Normalization to wt ASGR1 Binding |
| --- | --- |
| B1 | 1.18 |
| B2 | 1.18 |
| B3 | 1.11 |
| B4 | 0.868 |
| B5 | 0.75 |
| B6 | 1.07 |
| B7 | 0.912 |
| B8 | 1.48 |
| B9 | 1.2 |
| B10 | 0.962 |
| B11 | 0.893 |
| B12 | 0.997 |
| B13 | 1.57 |
| B14 | 1.27 |
| B15 | 1.42 |
| B16 | 1.42 |
| B17 | 1.37 |
| B18 | 1.07 |
| B19 | 0.616 |
